# Measurements taken from publication PMC11748629, “Unidirectional MCM translocation away from ORC drives origin licensing” (Nature Communications, 2025).
# T1: Mcm2 (Saccharomyces cerevisiae, UniProt P29469 1-868)
# T1 construct: Mcm2, S. cerevisiae; Subunit of m7, written alone for the contacts seen in OC1M^Mcm5RA; also called Mcm2 subunit of MCM; source: S. cerevisiae strain yGC226, purified as a subunit of MCM-Cdt1
# T1 sequence: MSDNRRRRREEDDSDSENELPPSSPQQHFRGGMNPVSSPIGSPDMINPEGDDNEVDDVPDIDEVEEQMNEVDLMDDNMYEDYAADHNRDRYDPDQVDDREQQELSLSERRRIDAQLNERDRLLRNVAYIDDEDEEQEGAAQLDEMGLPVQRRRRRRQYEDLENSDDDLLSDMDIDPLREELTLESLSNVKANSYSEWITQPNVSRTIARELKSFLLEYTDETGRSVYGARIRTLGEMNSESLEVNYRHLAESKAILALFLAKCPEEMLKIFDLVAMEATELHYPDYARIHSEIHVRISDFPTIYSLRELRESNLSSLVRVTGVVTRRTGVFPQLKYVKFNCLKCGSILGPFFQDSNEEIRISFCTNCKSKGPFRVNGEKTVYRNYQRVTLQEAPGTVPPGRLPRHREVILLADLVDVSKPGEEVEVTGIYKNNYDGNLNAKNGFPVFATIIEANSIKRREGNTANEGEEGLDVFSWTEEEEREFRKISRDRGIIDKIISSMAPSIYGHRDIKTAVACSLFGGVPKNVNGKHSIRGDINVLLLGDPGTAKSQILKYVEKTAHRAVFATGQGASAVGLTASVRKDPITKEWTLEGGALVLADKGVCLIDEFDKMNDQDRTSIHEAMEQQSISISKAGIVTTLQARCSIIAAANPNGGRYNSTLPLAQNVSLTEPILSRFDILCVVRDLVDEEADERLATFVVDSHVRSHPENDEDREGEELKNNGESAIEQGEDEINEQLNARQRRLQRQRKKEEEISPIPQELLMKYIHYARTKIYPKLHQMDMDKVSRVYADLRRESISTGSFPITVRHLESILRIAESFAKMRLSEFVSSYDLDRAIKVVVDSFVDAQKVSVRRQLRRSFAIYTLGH
# B1: Orc3 (natural protein, Saccharomyces cerevisiae)
# chain: MSDLNQSKKMNVSEFADAQRSHYTVYPSLPQSNKNDKHIPFVKLLSGKESEVNVEKRWELYHQLHSHFHDQVDHIIDNIEADLKAEISDLLYSETTQKRRCFNTIFLLGSDSTTKIELKDESSRYNVLIELTPKESPNVRMMLRRSMYKLYSAADAEEHPTIKYEDINDEDGDFTEQNNDVSYDLSLVENFKRLFGKDLAMVFNFKDVDSINFNTLDNFIILLKSAFKYDHVKISLIFNINTNLSNIEKNLRQSTIRLLKRNYHKLDVSSNKGFKYGNQIFQSFLDTVDGKLNLSDRFVEFILSKMANNTNHNLQLLTKMLDYSLMSYFFQNAFSVFIDPVNVDFLNDDYLKILSRCPTFMFFVEGLIKQHAPADEILSLLTNKNRGLEEFFVEFLVRENPINGHAKFVARFLEEELNITNFNLIELYHNLLIGKLDSYLDRWSACKEYKDRLHFEPIDTIFQELFTLDNRSGLLTQSIFPSYKSNIEDNLLSWEQVLPSLDKENYDTLSGDLDKIMAPVLGQLFKLYREANMTINIYDFYIAFRETLPKEEILNFIRKDPSNTKLLELAETPDAFDKVALILFMQAIFAFENMGLIKFQSTKSYDLVEKCVWRGI
# notes: Orc3, S. cerevisiae; Subunit of m1, written alone for the contacts seen in the structures; also called Orc3 subunit of ORC; source: S. cerevisiae strain ySD-ORC, purified as a subunit of ORC
# B2: Mcm5 R549A (natural protein, Saccharomyces cerevisiae)
# chain: MSFDRPEIYSAPVLQGESPNDDDNTEIIKSFKNFILEFRLDSQFIYRDQLRNNILVKNYSLTVNMEHLIGYNEDIYKKLSDEPSDIIPLFETAITQVAKRISILSRAQSANNNDKDPENTSMDTDSLLLNSLPTFQLILNSNANQIPLRDLDSEHVSKIVRLSGIIISTSVLSSRATYLSIMCRNCRHTTSITINNFNSITGNTVSLPRSCLSTIESESSMANESNIGDESTKKNCGPDPYIIIHESSKFIDQQFLKLQEIPELVPVGEMPRNLTMTCDRYLTNKVIPGTRVTIVGIYSIYNSKNGAGSGRSGGGNGGSGVAIRTPYIKILGIQSDVETSSIWNSVTMFTEEEEEEFLQLSRNPKLYEILTNSIAPSIFGNEDIKKAIVCLLMGGSKKILPDGMRLRGDINVLLLGDPGTAKSQLLKFVEKVSPIAVYTSGKGSSAAGLTASVQRDPMTREFYLEGGAMVLADGGVVCIDEFDKMRDEDRVAIHEAMEQQTISIAKAGITTVLNSRTSVLAAANPIYGRYDDLKSPGDNIDFQTTILSAFDMIFIVKDDHNEERDISIANHVINIHTGNANAMQNQQEENGSEISIEKMKRYITYCRLKCAPRLSPQAAEKLSSNFVTIRKQLLINELESTERSSIPITIRQLEAIIRITESLAKLELSPIAQERHVDEAIRLFQASTMDAASQDPIGGLNQASGTSLSEIRRFEQELKRRLPIGWSTSYQTLRREFVDTHRFSQLALDKALYALEKHETIQLRHQGQNIYRSGV
# notes: Mcm5, S. cerevisiae; Subunit of m7, written alone for the contacts seen in OC1M^Mcm5RA; also called Mcm5RA; source: S. cerevisiae strain yGC226, purified as a subunit of MCM-Cdt1
# Tests used:
# [1] = molecular target: B2; test: cryo-EM structure; OC1M^Mcm5RA: 30 nM MH-ARS1-MH DNA, 60 nM ORC, 90 nM Cdc6, 60 nM MCM-Cdt1 (Mcm5 R549A), 2 mM ATP; same buffer; 30 °C, 30 min; conformer 1 at 3.7 Å, conformer 2 at 3.4 Å (Orc1 ATPase domain seen only in conformer 1); settings: both partners purified
# [2] = molecular target: T1, Mcm2; test: as above; settings: both partners purified
Binder,binding result [1],binding result [2]
B1,binds,–
B2,–,binds
